Test results taken from the supplement of paper PMC9732359.
± gives the uncertainty stated by the source.

Experiment: protein stability index of a GFP-peptide fusion (yeast GPS) (PSI 1-4); higher = more stable; sorted into four equal gates, so the index is relative within each strain
Summary of the method: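 The protein stability index combines read frequencies across sorting gates, each weighted by its gate number and then summed. To obtain those frequencies, a pooled yeast library of GFP fusions to tiled 17-residue yeast protein peptides, on a plasmid also expressing Cherry, was grown to mid-log phase in leucine-free medium. The cells were sorted into four equal gates by GFP/Cherry ratio before plasmid amplification by PCR and Illumina sequencing.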

Row | Sequence | protein stability index (doa10∆) | protein stability index (pdr5∆) | protein stability index (san1∆) | protein stability index (ubr1∆)
1 | PSDMVIPDHLAELIPEL [SNF12] | 3.09 ± 0.08 | 3 ± 0.069 | 2.88 ± 0.11 | 2.79 ± 0.042
2 | PSEDVAAPKKTRKAVRP [RPL6B] | 2.74 ± 0.089 | 3.08 ± 0.1 | 2.93 ± 0.085 | 2.91 ± 0.073
3 | PSFTDEQWITIESQMRD [PRP8] | 2.44 ± 0.067 | 2.66 ± 0.064 | 2.8 ± 0.069 | 2.6 ± 0.053
4 | PSFTFGGSTTNNTTTTS [YOR098C/NUP1] | 3.04 ± 0.099 | 3.19 ± 0.091 | 3.08 ± 0.056 | 3.36 ± 0.073
5 | PSHEKLKESYSQKHNGR [CDC53] | 3.23 ± 0.13 | 3.13 ± 0.071 | 2.94 ± 0.047 | 3.04 ± 0.08
6 | PSHYPHPYEYEIDHQEY [RRP6] | 2.41 ± 0.055 | 2.58 ± 0.055 | 2.17 ± 0.078 | 2.27 ± 0.035
7 | PSKKRRRDFGAPANKRP [SMD1] | 2.57 ± 0.19 | 3.02 ± 0.1 | 3.16 ± 0.12 | 3.04 ± 0.09
8 | PSLRDRRERRLIFGTIA [RPT3] | 1.41 ± 0.08 | 2.04 ± 0.099 | 1.63 ± 0.079 | 1.85 ± 0.07
9 | PSQFGMLCTADTPEGEA [RET1] | – | 1.7 ± 0.23 | 2.58 ± 0.22 | –
10 | PSQSEEQKGQMAKKEGT [MED4] | 3.21 ± 0.2 | 3 ± 0.22 | 3.07 ± 0.19 | –
11 | PSRRERRREQTTYSVDD [ISW2] | 2.65 ± 0.26 | 3 ± 0.062 | 3.22 ± 0.17 | 2.35 ± 0.14
12 | PSTGGVKKPHRYKPGTV [HHT1] | 1.59 ± 0.065 | 1.62 ± 0.057 | 1.64 ± 0.097 | 1.81 ± 0.072
13 | PSTNKKLSISNAASQQP [GAL11] | 2.48 ± 0.084 | 2.8 ± 0.066 | 2.56 ± 0.072 | 2.74 ± 0.075
14 | PSYAERQSSDESDNYRL [YML031W/NDC1] | 2.62 ± 0.049 | 2.32 ± 0.043 | 2.75 ± 0.057 | 2.7 ± 0.036
15 | PTATPSPFRPLEKTSRI [YMR153W/NUP53] | 2.89 ± 0.1 | 2.51 ± 0.058 | 2.57 ± 0.11 | 2.81 ± 0.054
16 | PTGPKTAIDKNGNITYS [FAS2] | 2.9 ± 0.061 | 3.08 ± 0.057 | 3 ± 0.059 | 2.91 ± 0.057
17 | PTKAAQRARDQDSIDIS [GAL11] | 3.21 ± 0.094 | 3.16 ± 0.081 | 3.36 ± 0.077 | 3.22 ± 0.073
18 | PTLFDLAFNYITYDKQE [SRP68] | 2.39 ± 0.064 | 1.72 ± 0.064 | 1.77 ± 0.081 | 1.54 ± 0.059
19 | PTLVRSVISGNLSLYEA [CSN12] | 2.92 ± 0.085 | 3.05 ± 0.092 | 3.06 ± 0.068 | 2.91 ± 0.054
20 | PTPSVKTEPVGTGLQSY [RPC53] | 3.4 ± 0.25 | 3.23 ± 0.13 | 3.16 ± 0.1 | 3.25 ± 0.11
21 | PTVDEQRQYKVQLLLHI [SNF11] | 1.8 ± 0.12 | 1.95 ± 0.082 | 1.82 ± 0.12 | 1.89 ± 0.065
22 | PVDITMMENYQNISPVY [PRP8] | 2.28 ± 0.049 | 1.99 ± 0.06 | 2.2 ± 0.071 | 2.06 ± 0.038
23 | PVEKVKEHDEIEEQGDA [DPB4] | 3.19 ± 0.095 | 3.34 ± 0.12 | – | 3.5 ± 0.11
24 | PVIDTQIANEFNTQQGI [YDL116W/NUP84] | 2.77 ± 0.051 | 2.99 ± 0.057 | 2.79 ± 0.042 | 2.95 ± 0.047
25 | PVKSIRARLKGKEGRIR [RPO21] | 3.36 ± 0.091 | 3.22 ± 0.11 | 3.33 ± 0.085 | 2.94 ± 0.079
26 | PYCPIASITGTGSNDRC [YMR129W/POM152] | 1.96 ± 0.099 | 1.82 ± 0.1 | 1.56 ± 0.18 | 1.64 ± 0.055

Row | Sequence | protein stability index (doa10∆) | protein stability index (pdr5∆) | protein stability index (san1∆) | protein stability index (ubr1∆)
27 | PYFEQKIQETELKIRSK [RPT6] | 2.71 ± 0.12 | 2.84 ± 0.1 | 2.96 ± 0.13 | 3.04 ± 0.088
28 | PYGSFHQQQLQQPHYIQ [DSN1] | 2.76 ± 0.063 | 2.98 ± 0.052 | 2.92 ± 0.044 | 3.1 ± 0.048
29 | PYKYRLREEIFIANEGV [RPL2A] | 2.88 ± 0.096 | 2.94 ± 0.085 | 2.29 ± 0.067 | 2.86 ± 0.054
30 | PYMNHKNTSSMDFLNSM [GAL11] | 1.87 ± 0.056 | 1.69 ± 0.055 | 2.48 ± 0.089 | 3.04 ± 0.044
31 | QAGVTKASVTIVFDNTD [SMC2] | 2.23 ± 0.071 | 2.76 ± 0.058 | 2.73 ± 0.053 | 3.09 ± 0.047
32 | QAPTELELQVAQAFVEL [RPS7A] | 2.53 ± 0.055 | 2.82 ± 0.063 | 2.59 ± 0.047 | 2.45 ± 0.046
33 | QCIVYPNCLFILKLLNG [SOH1] | 1.3 ± 0.062 | 1.51 ± 0.061 | 1.27 ± 0.14 | 1.29 ± 0.047
34 | QDDDDYVDTATAKRKSR [IRR1] | 2.83 ± 0.061 | 2.94 ± 0.054 | 2.15 ± 0.083 | 2.93 ± 0.039
35 | QDDEYVKDWLYDSRPLE [PRP8] | 3.25 ± 0.16 | 3.43 ± 0.11 | 3.18 ± 0.13 | 3.02 ± 0.068
36 | QDEEQTEHLTELSDNEE [YCG1] | 3.29 ± 0.09 | 3.37 ± 0.075 | 3.33 ± 0.054 | 3.02 ± 0.062
37 | QDNHHITKVTENLFSKE [YMR129W/POM152] | 2.86 ± 0.059 | 2.8 ± 0.066 | 2.99 ± 0.045 | 3.1 ± 0.049
38 | QDPKTLVALLSRDLWCF [SSN2] | 1.39 ± 0.057 | 1.34 ± 0.043 | 1.31 ± 0.15 | 1.54 ± 0.073
39 | QDQYKEGIKVVDIDDPD [SNF2] | 2.97 ± 0.16 | 2.45 ± 0.086 | 2.13 ± 0.071 | 2.54 ± 0.073
40 | QDRLSDLIHKSEAFPSL [SMC4] | 3.31 ± 0.15 | 2.7 ± 0.11 | 3.07 ± 0.077 | 3.03 ± 0.088
41 | QDYYIIGANIYQSPTIF [MED6] | 2.33 ± 0.056 | 2.42 ± 0.055 | 2.15 ± 0.07 | 2.46 ± 0.029
42 | QEFFFHAMGGREGLIDT [RPO21] | 2.54 ± 0.081 | 2.17 ± 0.08 | 2.39 ± 0.087 | 2.08 ± 0.063
43 | QEHTIFTQLKKNIPKTR [SNU114] | 1.8 ± 0.045 | 2.16 ± 0.05 | 2.64 ± 0.049 | 1.62 ± 0.037
44 | QEKESQIQLAESELSLL [SMC4] | 2.81 ± 0.046 | 2.95 ± 0.051 | 1.89 ± 0.076 | 2.71 ± 0.039
45 | QENGTIFRGSLIGCIPY [YDL088C/ASM4] | 2.59 ± 0.052 | 2.57 ± 0.052 | 2.48 ± 0.061 | 2.5 ± 0.038
46 | QEQVQDYVNKTNSHLPA [FAS1] | 2.52 ± 0.069 | 2.44 ± 0.1 | 2.62 ± 0.11 | 2.32 ± 0.064
47 | QESFNSVQNLDQLLTDL [NUT1] | 3.22 ± 0.092 | 3.2 ± 0.095 | 3.04 ± 0.049 | 3.17 ± 0.068
48 | QFEKSRKVSGPRALQPS [RET1] | 2.98 ± 0.085 | 3.19 ± 0.11 | 2.94 ± 0.061 | 3.06 ± 0.066
49 | QFNKILPEPTEGFAADD [FAS1] | 2.79 ± 0.067 | 3.07 ± 0.08 | 2.91 ± 0.081 | 2.77 ± 0.11
50 | QFQRLAPSLTVPPIASP [PRE2] | 2.14 ± 0.053 | 2.03 ± 0.049 | 1.85 ± 0.055 | 2.15 ± 0.038
51 | QGDGLLTKLQKYGAAVR [RPN7] | 2.93 ± 0.17 | 2.89 ± 0.14 | 3.17 ± 0.12 | 3.28 ± 0.19
52 | QGIVRVYSKQATFLLTD [MCD1] | 1.97 ± 0.038 | 2.29 ± 0.047 | 2.35 ± 0.049 | 2.03 ± 0.037
